Experimental data from patent publication US20190048340 (CRISPR Therapeutics AG, published 2019).

Target: Cpf1 (FnCpf1, FTN_1397) wild type (Francisella novicida U112, UniProt A0Q7Q2 SEQ:1-1300)
Experiment: EMSA; PAM YTN (TTA); 37 C
Conditions: tags: N-terminal 6xHis (pET-16b); label: 5'-32P; repeat hairpin

Sequence of Cpf1 (FnCpf1, FTN_1397) wild type (A0Q7Q2 whole entry): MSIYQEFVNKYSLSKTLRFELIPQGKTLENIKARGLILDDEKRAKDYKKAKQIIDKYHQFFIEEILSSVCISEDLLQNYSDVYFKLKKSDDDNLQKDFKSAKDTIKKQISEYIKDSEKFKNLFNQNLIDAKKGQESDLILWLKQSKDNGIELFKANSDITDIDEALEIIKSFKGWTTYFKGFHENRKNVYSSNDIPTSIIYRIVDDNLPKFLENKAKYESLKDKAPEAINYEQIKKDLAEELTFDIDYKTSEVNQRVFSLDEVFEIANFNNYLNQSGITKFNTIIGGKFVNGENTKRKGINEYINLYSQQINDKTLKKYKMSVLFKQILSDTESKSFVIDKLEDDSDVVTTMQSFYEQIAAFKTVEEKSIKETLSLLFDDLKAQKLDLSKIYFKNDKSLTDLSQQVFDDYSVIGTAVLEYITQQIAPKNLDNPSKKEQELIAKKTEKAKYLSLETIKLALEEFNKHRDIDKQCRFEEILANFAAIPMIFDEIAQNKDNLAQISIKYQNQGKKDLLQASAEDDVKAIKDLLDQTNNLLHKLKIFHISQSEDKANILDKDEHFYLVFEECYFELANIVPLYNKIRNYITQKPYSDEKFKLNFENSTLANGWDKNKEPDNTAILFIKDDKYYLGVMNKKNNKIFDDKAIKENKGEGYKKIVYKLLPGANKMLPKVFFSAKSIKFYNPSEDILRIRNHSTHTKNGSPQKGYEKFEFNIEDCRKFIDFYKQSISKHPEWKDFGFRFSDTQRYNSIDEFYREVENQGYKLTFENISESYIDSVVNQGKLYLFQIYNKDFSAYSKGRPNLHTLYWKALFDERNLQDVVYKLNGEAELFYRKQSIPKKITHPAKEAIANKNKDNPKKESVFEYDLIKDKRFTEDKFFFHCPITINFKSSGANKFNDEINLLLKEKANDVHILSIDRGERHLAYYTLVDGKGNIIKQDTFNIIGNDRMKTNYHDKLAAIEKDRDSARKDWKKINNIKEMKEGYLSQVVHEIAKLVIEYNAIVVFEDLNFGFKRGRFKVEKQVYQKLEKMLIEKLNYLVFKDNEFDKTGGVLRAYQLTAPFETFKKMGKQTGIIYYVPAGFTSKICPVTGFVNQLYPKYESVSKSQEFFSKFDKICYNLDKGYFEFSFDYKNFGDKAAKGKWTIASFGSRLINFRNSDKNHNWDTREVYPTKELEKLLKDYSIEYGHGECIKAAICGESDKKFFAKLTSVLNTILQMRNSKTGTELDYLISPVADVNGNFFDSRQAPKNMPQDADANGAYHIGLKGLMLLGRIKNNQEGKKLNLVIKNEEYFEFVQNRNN

B1: crRNA-sp5 repeat-spacer full-length (RNA 4); ref is antisense T7 transcription template ; Psp5 oligonucleotide duplex (ssRNA ; dsDNA)
RNA: GGGUCUAAGAACUUUAAAUAAUUUCUACUGUUGUAGAUAGAUUAAAAGGUAAUUCUAUCUUGUUGAG
DNA 1: AGCTGTAGCAAATATTAATCATATAGAAGAAAGCTCAGATCTCAACAAGATAGAATTACCTTTTAATCTTAAATTATTATATCCAGAAACTATTGATGGTAATTTACTTATC
DNA 2: AGCTGATAAGTAAATTACCATCAATAGTTTCTGGATATAATAATTTAAGATTAAAAGGTAATTCTATCTTGTTGAGATCTGAGCTTTCTTCTATATGATTAATATTTGCTAC
Kd: 50 nM
